The subject of one experiment is Wnt/β-catenin pathway. As to the kind of experiment: Dual Luciferase TopFlash/Renilla Reporter Assay. Format: cell-based, human. The conditions noted are these: Fig 8d. On the procedure: Cells were transfected 24 h after seeding with 0.1 μg of Super8X TopFlash construct, 0.1 μg of Renilla luciferase construct, and 0.1 μg of corresponding plasmids per well for 6 h in a 24-well plate. As for the ECFP-DVL3 FIII wt stable cell lines, transfection was followed by 4 h induction of tetracycline (1 µg/ml) and 8 h treatment of CM:DMEM (1:1 ratio). For performing this assay, Promega Dual Luciferase assay kit (Promega, #E1910) was used according to the manufacturer’s instructions. Luminescence was measured by a Hidex Bioscan Plate Chameleon Luminometer. Results are depicted as the ratio of TopFlash and Renilla signal (TopFlash fold induction), which was normalized for each experiment to certain control column (normalized TopFlash fold induction). Data were analyzed by MS Excel 2007 and GraphPad Prism 6 and results were shown as the means ± S.D. (number of experiments indicated ad hoc).

Experiment [1] relates to DVL3 membrane recruitment by FZD6 in HEK293 cells. Briefly: FZD6-dependent membrane recruitment of DVL3, immunofluorescence. The class given is cell-based, human. The conditions noted are these: Fig 8c. Also on record: key to Non-recruited (DVL3 membrane recruitment): number of cells out of 100 positive cells scored. The source says:
First, we analyzed the preferred subcellular localization of DVL3 (as introduced in Fig. 2c)[10],[14]. […] Next, we investigated if DVL3 conformation correlates with the capacity of DVL3 to be recruited by FZD6, a key Wnt receptor, to the plasma membrane. For this purpose, we co-expressed FZD6 and analyzed membrane recruitment of DVL3 in FZD6-positive cells by immunofluorescence. Individual cells were categorized as: not recruited (Fig. 8b, no DVL3 in the membrane), partially recruited (clear membrane as well as cytoplasmic localization), and fully recruited (predominantly plasma membrane localization, Fig. 8c, left). […] In the last readout we analyzed the capacity of DVL3 to activate downstream Wnt/β-catenin pathway monitored by TopFlash reporter assay (Fig. 8d). […] On the other hand, under conditions that favor the open conformation both activation as well as inhibition of the Wnt/β-catenin pathway was evident.
For immunofluorescence, cells were seeded (40,000 per well) on 24-well plates with gelatin-coated coverslips and transfected, as indicated, with 0.1 μg of each corresponding plasmid (0.3 μg of mCherry-FZD6) for 6 h. For western blotting and Dual Luciferase TopFlash/Renilla Reporter Assay, cells were seeded (60,000 per well) directly on 24-well plates with 0.1 μg of each corresponding plasmid (if not indicated otherwise) for 6 h. For coimmunoprecipitation, cells were seeded (4.4 × 10^6) on 10-cm dishes and transfected with 1 μg of each corresponding plasmid. The next day after seeding, cells were transfected using polyethyleneimine (PEI) in a stoichiometry of 6 μl of PEI per 1 μg of DNA for 6 h and were harvested 24 h after transfection. The following plasmids used in HEK293 cells have been described previously: FLAG-DVL3 wt[47], CK1ϵ wt[48], mCherry-FZD6 (ref. [37]), and dominant-negative CK1ϵ P3 (ref. [33]). The ECFP-DVL3 wt plasmid was made by Gateway Technology (via LR recombination according to the manufacturer’s instructions; Thermo Fisher Scientific, #11791020) from the donor plasmid pDONR221 DVL3 (DNASU, #FLH178665.01x) and the destination plasmid pdECFP (LMBP, #4548). The HA-DVL3 wt plasmid was made by Gateway Technology from the donor plasmid pDONR221 DVL3 (DNASU, #FLH178665.01x) and the destination plasmid pcDNA3.1 N-term HA (gift from Erich Nigg).
Cells were seeded on gelatin-coated coverslips in 24-well plates and were transfected the next day. Cells were fixed 24 h later in fresh 4% paraformaldehyde, permeabilized with 0.5% Triton X-100, blocked with PBS/BSA/Triton/Azide buffer (PBTA) [3% (wt/vol) BSA, 0.25% Triton, 0.01% NaN3] for 1 h, and incubated overnight with primary antibodies (in dilution 1:500) in PBTA at 4 °C. The next day, the coverslips were washed in PBS and incubated with secondary antibodies conjugated to Alexa Fluor 488 (Invitrogen A11001) or/and Alexa Fluor 594 (Invitrogen A11058) (all in dilution 1:1000), washed with PBS [in case of samples containing FLAG-DVL3 WT and derived variants stained with DAPI (1:5000)], and all coverslips were mounted on microscopic slides. Cells were then visualized on an Olympus IX51 fluorescent microscope using ×40 air or ×100 oil objectives and/or an Olympus Fluoview 500 confocal laser scanning microscope IX71 using ×100 oil objective. One hundred positive cells per experiment (n = 3) were analyzed and scored according to their phenotype into two/three categories (punctae/even); or non-recruited/partially/fully recruited for FZD6-dependent recruitment of DVL3. The antibodies used were as follows: anti-FLAG M2 (Sigma-Aldrich, #F1804), anti-DVL3 (Santa Cruz, #sc-8027), anti-CK1ɛ (Santa Cruz, #sc-6471), anti-RFP (Chromotek, #5h9) and anti-GFP (Fitzgerald, #20R-GR-011).

B1: DVL3 S268A/S311A (protein, UniProt Q92997 1-716, looked up, variant S268A S311A)
Segment polarity protein …: MGETKIIYHLDGQETPYLVKLPLPAERVTLADFKGVLQRPSYKFFFKSMDDDFGVVKEEISDDNAKLPCFNGRVVSWLVSAEGSHPDPAPFCADNPSELPPPMERTGGIGDSRPPSFHPHAGGGSQENLDNDTETDSLVSAQRERPRRRDGPEHATRLNGTAKGERRREPGGYDSSSTLMSSELETTSFFDSDEDDSTSRFSSSTEQSSASRLMRRHKRRRRKQKVSRIERSSSFSSITDSTMSLNIITVTLNMEKYNFLGISIVGQANERGDGGIYIGSIMKGGAVAADGRIEPGDMLLQVNEINFENMANDDAVRVLREIVHKPGPITLTVAKCWDPSPRGCFTLPRSEPIRPIDPAAWVSHTAAMTGTFPAYGMSPSLSTITSTSSSITSSIPDTERLDDFHLSIHSDMAAIVKAMASPESGLEVRDRMWLKITIPNAFIGSDVVDWLYHNVEGFTDRREARKYASNLLKAGFIRHTVNKITFSEQCYYIFGDLCGNMANLSLHDHDGSSGASDQDTLAPLPHPGAAPWPMAFPYQYPPPPHPYNPHPGFPELGYSYGGGSASSQHSEGSRSSGSNRSGSDRRKEKDPKAGDSKSGGSGSESDHTTRSSLRGPRERAPSERSGPAASEHSHRSHHSLASSLRSHHTHPSYGPPGVPPLYGPPMLMMPPPPAAMGPPGAPPGRDLASVPPELTASRQSFRMAMGNPSEFFVDVM
B1: the “TopFlash relative to DVL3 wt (= 1)” value in the experiment on Wnt/β-catenin pathway (replicate of grid row r4) is given as 0.2512; in the experiment with Wnt/β-catenin pathway (replicate of grid row r5), 0.4095; in the experiment on Wnt/β-catenin pathway (replicate of grid row r6), 0.2391; with Wnt/β-catenin pathway (replicate of grid row r7), 0.3021; in the experiment on Wnt/β-catenin pathway (replicate of grid row r8), 0.4946; with Wnt/β-catenin pathway (replicate of grid row r9) it was 0.4126. Besides, the “TopFlash relative to DVL3 wt (= 1)” value in the experiment with Wnt/β-catenin pathway (replicate of grid row r10) is given as 0.6059; in the experiment on Wnt/β-catenin pathway (replicate of grid row r11) it was 0.4276; in the experiment with Wnt/β-catenin pathway (replicate of grid row r12), 0.421; in the experiment on Wnt/β-catenin pathway (replicate of grid row r13), 0.43; in the experiment on Wnt/β-catenin pathway (replicate of grid row r14), 0.3266. In addition, the “Non-recruited (DVL3 membrane recruitment)” value worked out at 79 in experiment [1] (exp1), 54 in experiment [1] (exp2) and 68 in experiment [1] (exp3). Further, the “Partially recruited (DVL3 membrane recruitment)” value in experiment [1] (exp1) came out at 19; in experiment [1] (exp2) it was 35; in experiment [1] (exp3) it was 16. For the same molecule, the “Fully recruited (DVL3 membrane recruitment)” value in experiment [1] (exp2) is on record as 11; in experiment [1] (exp3), 16.

B2: DVL3 S268E/S311E (protein, UniProt Q92997 1-716, looked up, variant S268E S311E)
Segment polarity protein …: MGETKIIYHLDGQETPYLVKLPLPAERVTLADFKGVLQRPSYKFFFKSMDDDFGVVKEEISDDNAKLPCFNGRVVSWLVSAEGSHPDPAPFCADNPSELPPPMERTGGIGDSRPPSFHPHAGGGSQENLDNDTETDSLVSAQRERPRRRDGPEHATRLNGTAKGERRREPGGYDSSSTLMSSELETTSFFDSDEDDSTSRFSSSTEQSSASRLMRRHKRRRRKQKVSRIERSSSFSSITDSTMSLNIITVTLNMEKYNFLGISIVGQENERGDGGIYIGSIMKGGAVAADGRIEPGDMLLQVNEINFENMENDDAVRVLREIVHKPGPITLTVAKCWDPSPRGCFTLPRSEPIRPIDPAAWVSHTAAMTGTFPAYGMSPSLSTITSTSSSITSSIPDTERLDDFHLSIHSDMAAIVKAMASPESGLEVRDRMWLKITIPNAFIGSDVVDWLYHNVEGFTDRREARKYASNLLKAGFIRHTVNKITFSEQCYYIFGDLCGNMANLSLHDHDGSSGASDQDTLAPLPHPGAAPWPMAFPYQYPPPPHPYNPHPGFPELGYSYGGGSASSQHSEGSRSSGSNRSGSDRRKEKDPKAGDSKSGGSGSESDHTTRSSLRGPRERAPSERSGPAASEHSHRSHHSLASSLRSHHTHPSYGPPGVPPLYGPPMLMMPPPPAAMGPPGAPPGRDLASVPPELTASRQSFRMAMGNPSEFFVDVM
For the molecule B2, the “TopFlash relative to DVL3 wt (= 1)” value in the experiment on Wnt/β-catenin pathway (replicate of grid row r4) is given as 0.8175; in the experiment on Wnt/β-catenin pathway (replicate of grid row r5) it was 1.687; in the experiment on Wnt/β-catenin pathway (replicate of grid row r6), 1.081; with Wnt/β-catenin pathway (replicate of grid row r7), 0.9973; in the experiment on Wnt/β-catenin pathway (replicate of grid row r8), 0.619; with Wnt/β-catenin pathway (replicate of grid row r9) it was 0.5939. Also, the “TopFlash relative to DVL3 wt (= 1)” value in the experiment on Wnt/β-catenin pathway (replicate of grid row r10) is 0.8497; with Wnt/β-catenin pathway (replicate of grid row r11), 1.052; in the experiment with Wnt/β-catenin pathway (replicate of grid row r12), 1.009; in the experiment on Wnt/β-catenin pathway (replicate of grid row r13), 1.108; in the experiment on Wnt/β-catenin pathway (replicate of grid row r14) it was 1.265. In addition, the figures for the “Fully recruited (DVL3 membrane recruitment)” value in experiment [1] (exp1), in experiment [1] (exp2) and in experiment [1] (exp3) were 11, 20 and 10, respectively. In addition, the “Non-recruited (DVL3 membrane recruitment)” value came out at 52 in experiment [1] (exp1), 49 in experiment [1] (exp2) and 60 in experiment [1] (exp3). Also, the “Partially recruited (DVL3 membrane recruitment)” value in experiment [1] (exp1) was found to be 37; in experiment [1] (exp2), 31; in experiment [1] (exp3), 30.

Values taken from publication PMC6472409, “Dishevelled-3 conformation dynamics analyzed by FRET-based biosensors reveals a key role of casein kinase 1” (Nature Communications, 2019).
